Results reported in patent publication US20080267908A1 (YEDA RESEARCH AND DEVELOPMENT, published 2008).
Each block holds one binder with its values, some of them ahead of it.

Tests used:
[1] = target: T1, commercially available human PR-3 (Athens Research and Technology) inactivated by PMSF (human, UniProt P24158 28-248, inactivated by PMSF; the modified residue is not stated); test: SPR (BIAcore), IL-32 immobilized; commercial PR-3 inactivated by PMSF (FIG. 3B)
T1 construct: mature; Same product as the commercial PR-3, treated with PMSF before the assay; also called PMSF pretreated commercial PR-3
T1 sequence (looked up): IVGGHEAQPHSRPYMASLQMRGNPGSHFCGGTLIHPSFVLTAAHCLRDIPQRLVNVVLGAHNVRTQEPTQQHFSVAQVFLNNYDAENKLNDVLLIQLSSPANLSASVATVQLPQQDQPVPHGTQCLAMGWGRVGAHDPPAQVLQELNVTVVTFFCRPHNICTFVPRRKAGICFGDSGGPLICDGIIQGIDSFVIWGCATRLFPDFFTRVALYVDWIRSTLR
Protocol: (§1) FIG. 2 A. IL-32 (20 μg/ml) in acetate buffer pH 4.6) was immobilized to a single channel of a BIAcore chip as recommended by the manufacturer (Amersham Pharmacia, Uppsala Sweden). […] The resulting kD was 7.9×10⁻⁸ M.
(§2) For details see FIG. 2. The binding data gave a kD of 1.2×10⁻⁸ M with active PR-3, which considerably degraded the immobilized IL-32 (FIG. 3 A). The kD of commercially available PR-3 that was inactivated by PMSF (FIG. 3 B) was 3.5×10⁻⁸ M.
(§3) IL-32 (20 μg/ml) in acetate buffer pH 4.6) was immobilized to a single channel of a BIAcore chip as recommended by the manufacturer (Amersham Pharmacia, Uppsala Sweden). […] The same analysis was done with PR-3 that was inactivated by PMSF (1 mM) (FIG. 2B). The resulting kD was 7.9×10⁻⁸ M. The same analysis was done with a commercially available human neutrophil derived PR-3 (Athens Research and Technology, Athens Ga., 0.5 μg in 20 μl gelatin solution) (FIG. 3A). The resulting kD was 1.2×10⁻⁸ M. The binding was repeated with commercial PR-3 that was inactivated by PMSF (FIG. 3B). The resulting kD was 3.5×10⁻⁸ M.

[2] = target: T2, human urinary Proteinase-3 (PR-3), affinity purified (elution fraction 3 of the IL-32 column), active (human, UniProt P24158 28-248); test: SPR (BIAcore), IL-32 immobilized, PR-3 at 10-80 nM; urinary PR3, active (FIG. 2A)
T2 construct: mature; also called urinary PR-3; urinary PR3
T2 sequence (looked up): T1 sequence (looked up)
Protocol: as §1, §3

[3] = target: T3, human urinary PR-3 inactivated by phenyl methyl sulfonyl fluoride (PMSF) (human, UniProt P24158 28-248, inactivated by PMSF (1 mM); the modified residue is not stated); test: SPR (BIAcore), IL-32 immobilized; urinary PR-3 inactivated by PMSF (1 mM) (FIG. 2B)
T3 construct: mature; Same preparation as the urinary PR-3, treated with PMSF before the assay; also called PMSF pretreated urinary PR-3
T3 sequence (looked up): T1 sequence (looked up)
Protocol: as §1, §3

[4] = target: T4, commercially available human neutrophil derived PR-3 (Athens Research and Technology), active (human, UniProt P24158 28-248); test: SPR (BIAcore), IL-32 immobilized; commercial neutrophil-derived PR-3, active (FIG. 3A)
T4 construct: mature; Bought; purified from human neutrophils; also called commercial PR-3; commercially available PR-3
T4 sequence (looked up): T1 sequence (looked up)
Protocol: as §1, §2, §3

[5] = target: T5, 125I-IL-32 (radio-iodinated IL-32)
T5 chain: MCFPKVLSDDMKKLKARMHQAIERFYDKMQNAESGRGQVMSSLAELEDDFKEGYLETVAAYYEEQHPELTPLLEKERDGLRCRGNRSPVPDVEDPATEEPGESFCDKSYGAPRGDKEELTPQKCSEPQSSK

Kd [1]: 35 nM | Kd [2]: 26.5 nM | Kd [3]: 79 nM | Kd [4]: 12 nM
B1: recombinant human IL-32α produced in E. coli (ligand)
chain: T5 chain
notes: also called hrIL-32; human recombinant IL-32

B2: human urinary Proteinase-3 (PR-3), affinity purified (elution fraction 3 of the IL-32 column), active (protein)
chain: T1 sequence (looked up)
cleavage of 125I-IL-32 (SDS-PAGE, autoradiography) [5]: the 20 kDa band completely disappeared and the levels of the 16 and 13 kDa IL-32 cleavage products increased after a 5 min. incubation with PR-3

B3: human urinary PR-3 inactivated by phenyl methyl sulfonyl fluoride (PMSF) (protein)
chain: T1 sequence (looked up)
cleavage of 125I-IL-32 (SDS-PAGE, autoradiography) [5]: no cleavage products were observed with PMSF pretreated PR-3 incubated with IL-32

B4: commercially available human neutrophil derived PR-3 (Athens Research and Technology), active (protein)
chain: T1 sequence (looked up)
cleavage of 125I-IL-32 (SDS-PAGE, autoradiography) [5]: the commercial PR-3 is more potent than the urinary PR-3, leading to complete disappearance of the 20 kDa IL-32 band within 1 min

B5: commercially available human PR-3 (Athens Research and Technology) inactivated by PMSF (protein)
chain: T1 sequence (looked up)
cleavage of 125I-IL-32 (SDS-PAGE, autoradiography) [5]: no cleavage products were observed with PMSF pretreated PR-3 incubated with IL-32
